Experimental data reported in patent publication US20120135923A1, “Use of Melanocortins to Treat Dyslipidemia” (IPSEN PHARMA, S.A.S., priority 2009, published 2012).
Bridge positions count the residues as written; N and C are the ends. Square brackets hold non-standard residues; d marks the D form. Ends that are not written are not given here. 2Nal = N[C@@H](Cc1ccc2ccccc2c1)C(=O)O; d2Nal = N[C@H](Cc1ccc2ccccc2c1)C(=O)O; Bta = N[C@@H](Cc1csc2ccccc12)C(=O)O; Pen = CC(C)(S)[C@H](N)C(=O)O; Nle = CCCC[C@H](N)C(=O)O; Aib = CC(C)(N)C(=O)O; Ava = NCCCCC(=O)O; GABA = NCCCC(=O)O; βAla = NCCC(=O)O

B1: Ac-D-Arg-c(Cys-His-D-Phe-Arg-Trp-Gaba-Pen)-NH2 (peptide)
peptide: Ac-[dR]CH[dF]RW[GABA][Pen]-NH2
modifications: disulfide 2-8
SMILES: CC(=O)N[C@H](CCCNC(=N)N)C(=O)N[C@H]1CSSC(C)(C)[C@@H](C(N)=O)NC(=O)CCCNC(=O)[C@H](Cc2c[nH]c3ccccc23)NC(=O)[C@H](CCCNC(=N)N)NC(=O)[C@@H](Cc2ccccc2)NC(=O)[C@H](Cc2c[nH]cn2)NC1=O
B2: Ac-c(Cys-Glu-His-D-2-Nal-Arg-Trp-Ala-Cys)-Pro-Pro-Lys-Asp-NH2 (peptide)
peptide: Ac-CEH[d2Nal]RWACPPKD-NH2
modifications: disulfide 1-8
SMILES: CC(=O)N[C@H]1CSSC[C@@H](C(=O)N2CCC[C@H]2C(=O)N2CCC[C@H]2C(=O)N[C@@H](CCCCN)C(=O)N[C@@H](CC(=O)O)C(N)=O)NC(=O)[C@H](C)NC(=O)[C@H](Cc2c[nH]c3ccccc23)NC(=O)[C@H](CCCNC(=N)N)NC(=O)[C@@H](Cc2ccc3ccccc3c2)NC(=O)[C@H](Cc2c[nH]cn2)NC(=O)[C@H](CCC(=O)O)NC1=O
B3: Ac-Arg-c(Cys-His-D-Phe-Arg-Trp-Gaba-Pen)-NH2 (peptide)
peptide: Ac-RCH[dF]RW[GABA][Pen]-NH2
modifications: disulfide 2-8
SMILES: CC(=O)N[C@@H](CCCNC(=N)N)C(=O)N[C@H]1CSSC(C)(C)[C@@H](C(N)=O)NC(=O)CCCNC(=O)[C@H](Cc2c[nH]c3ccccc23)NC(=O)[C@H](CCCNC(=N)N)NC(=O)[C@@H](Cc2ccccc2)NC(=O)[C@H](Cc2c[nH]cn2)NC1=O
B4: Ac-c(Cys-Glu-His-D-2-Nal-Arg-Bal-Ala-Cys)-Pro-Pro-Lys-Asp-β-Ala-Tyr-Aib-Arg-Lys-Lys-Arg-Arg-Gln-Arg-Arg-Arg-NH2 (peptide)
peptide: Ac-CEH[d2Nal]R[Bta]ACPPKD[βAla]Y[Aib]RKKRRQRRR-NH2
modifications: disulfide 1-8
SMILES: CC(=O)N[C@H]1CSSC[C@@H](C(=O)N2CCC[C@H]2C(=O)N2CCC[C@H]2C(=O)N[C@@H](CCCCN)C(=O)N[C@@H](CC(=O)O)C(=O)NCCC(=O)N[C@@H](Cc2ccc(O)cc2)C(=O)NC(C)(C)C(=O)N[C@@H](CCCNC(=N)N)C(=O)N[C@@H](CCCCN)C(=O)N[C@@H](CCCCN)C(=O)N[C@@H](CCCNC(=N)N)C(=O)N[C@@H](CCCNC(=N)N)C(=O)N[C@@H](CCC(N)=O)C(=O)N[C@@H](CCCNC(=N)N)C(=O)N[C@@H](CCCNC(=N)N)C(=O)N[C@@H](CCCNC(=N)N)C(N)=O)NC(=O)[C@H](C)NC(=O)[C@H](Cc2csc3ccccc23)NC(=O)[C@H](CCCNC(=N)N)NC(=O)[C@@H](Cc2ccc3ccccc3c2)NC(=O)[C@H](Cc2c[nH]cn2)NC(=O)[C@H](CCC(=O)O)NC1=O
B5: Ac-c(Cys-Glu-His-D-2-Nal-Arg-2-Nal-Ala-Cys)-Pro-Pro-Lys-Asp-β-Ala-Tyr-Gly-Arg-Lys-Lys-Arg-Arg-Gln-Arg-Arg-Arg-NH2 (peptide)
peptide: CEHXRXACPPKDXYGRKKRRQRRR
modifications: N-terminal acetyl; X4=D-2-Nal; X6=2-Nal; X13=β-Ala; Cys1-Cys8 disulfide; C-terminal amide
B6: Ac-c(Cys-Glu-His-D-2-Nal-Arg-1-Nal-Ala-Cys)-Pro-Pro-Lys-Asp-β-Ala-Tyr-Gly-Arg-Lys-Lys-Arg-Arg-Gln-Arg-Arg-Arg-NH2 (peptide)
peptide: CEHXRXACPPKDXYGRKKRRQRRR
modifications: N-terminal acetyl; X4=D-2-Nal; X6=1-Nal; X13=β-Ala; Cys1-Cys8 disulfide; C-terminal amide
B7: Ac-c(Cys-Glu-His-D-2-Nal-Arg-Bal-Ala-Cys)-Pro-Pro-Lys-Asp-β-Ala-Tyr-Gly-Arg-Lys-Lys-Arg-Arg-Gln-Arg-Arg-Arg-NH2 (peptide)
peptide: CEHXRXACPPKDXYGRKKRRQRRR
modifications: N-terminal acetyl; X4=D-2-Nal; X6=Bal; X13=β-Ala; Cys1-Cys8 disulfide; C-terminal amide
B8: Ac-Nle-c(Cys-D-Ala-His-D-Phe-Arg-Trp-Cys)-(Doc)2-Tyr-Gly-Arg-Lys-Lys-Arg-Arg-Gln-Arg-Arg-Arg-NH2 (peptide)
peptide: XCAHFRWCXXYGRKKRRQRRR
modifications: N-terminal acetyl; X1=Nle; D-Ala3; D-Phe5; X9=Doc; X10=Doc; Cys2-Cys8 disulfide; C-terminal amide
B9: Ac-c(Cys-Glu-His-D-2-Nal-Arg-2-Nal-Aib-Cys)-Pro-Pro-Lys-Asp-NH2 (peptide)
peptide: Ac-CEH[d2Nal]R[2Nal][Aib]CPPKD-NH2
modifications: disulfide 1-8
SMILES: CC(=O)N[C@H]1CSSC[C@@H](C(=O)N2CCC[C@H]2C(=O)N2CCC[C@H]2C(=O)N[C@@H](CCCCN)C(=O)N[C@@H](CC(=O)O)C(N)=O)NC(=O)C(C)(C)NC(=O)[C@H](Cc2ccc3ccccc3c2)NC(=O)[C@H](CCCNC(=N)N)NC(=O)[C@@H](Cc2ccc3ccccc3c2)NC(=O)[C@H](Cc2c[nH]cn2)NC(=O)[C@H](CCC(=O)O)NC1=O
B10: Nle-c(Cys-His-D-Phe-Arg-Trp-Apn-Cys)-NH2 (peptide)
peptide: [Nle]CH[dF]RW[Ava]C-NH2
modifications: disulfide 2-8; N-terminus assumed
SMILES: CCCC[C@H](N)C(=O)N[C@H]1CSSC[C@@H](C(N)=O)NC(=O)CCCCNC(=O)[C@H](Cc2c[nH]c3ccccc23)NC(=O)[C@H](CCCNC(=N)N)NC(=O)[C@@H](Cc2ccccc2)NC(=O)[C@H](Cc2c[nH]cn2)NC1=O

Legend:
Experiment in all cases: cell-based or functional assay
[1] = target: hMC1-R (human) (UniProt Q01726)
[2] = target: hMC3-R (human) (UniProt P41968)
[3] = target: hMC4-R (human) (UniProt P32245)
[4] = target: hMC5-R (human) (UniProt P33032)
Chain of hMC5-R (human) (P33032 whole entry): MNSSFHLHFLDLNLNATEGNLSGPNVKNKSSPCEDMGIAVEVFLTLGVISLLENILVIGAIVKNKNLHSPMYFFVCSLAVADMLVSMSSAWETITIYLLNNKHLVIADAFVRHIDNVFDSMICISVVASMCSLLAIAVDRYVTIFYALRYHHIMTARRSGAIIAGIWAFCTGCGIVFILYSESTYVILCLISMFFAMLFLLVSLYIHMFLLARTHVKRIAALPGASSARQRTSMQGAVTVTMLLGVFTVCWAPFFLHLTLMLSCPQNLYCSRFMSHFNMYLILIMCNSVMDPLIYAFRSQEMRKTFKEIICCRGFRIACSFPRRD

Chain of hMC1-R (human) (Q01726 whole entry): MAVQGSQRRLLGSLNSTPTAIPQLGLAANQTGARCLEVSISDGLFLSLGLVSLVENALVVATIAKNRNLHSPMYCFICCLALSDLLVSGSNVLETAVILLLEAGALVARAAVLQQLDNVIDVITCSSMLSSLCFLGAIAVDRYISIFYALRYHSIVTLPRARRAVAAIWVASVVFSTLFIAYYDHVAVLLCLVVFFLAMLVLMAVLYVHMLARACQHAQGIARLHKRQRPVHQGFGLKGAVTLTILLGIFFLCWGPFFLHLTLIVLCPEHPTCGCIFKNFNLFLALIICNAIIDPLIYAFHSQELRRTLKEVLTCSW
Chain of hMC3-R (human) (P41968 whole entry): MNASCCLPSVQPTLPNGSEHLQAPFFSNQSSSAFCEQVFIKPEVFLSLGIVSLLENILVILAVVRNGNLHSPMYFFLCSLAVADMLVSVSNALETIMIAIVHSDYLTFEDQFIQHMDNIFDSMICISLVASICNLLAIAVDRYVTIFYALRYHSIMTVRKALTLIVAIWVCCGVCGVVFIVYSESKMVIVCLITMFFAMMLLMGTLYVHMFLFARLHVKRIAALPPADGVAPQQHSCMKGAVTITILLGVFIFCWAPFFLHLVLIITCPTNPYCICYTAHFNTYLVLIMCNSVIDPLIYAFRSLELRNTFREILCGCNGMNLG
Chain of hMC4-R (human) (P32245 whole entry): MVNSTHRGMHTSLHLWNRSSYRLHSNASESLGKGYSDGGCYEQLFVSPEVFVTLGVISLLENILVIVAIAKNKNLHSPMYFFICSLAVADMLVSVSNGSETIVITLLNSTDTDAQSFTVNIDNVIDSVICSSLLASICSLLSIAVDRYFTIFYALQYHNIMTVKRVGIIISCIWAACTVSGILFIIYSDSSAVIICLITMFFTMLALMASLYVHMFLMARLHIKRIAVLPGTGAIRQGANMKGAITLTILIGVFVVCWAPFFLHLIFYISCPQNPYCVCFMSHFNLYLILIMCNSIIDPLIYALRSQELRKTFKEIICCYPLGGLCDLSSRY

| Binder | cAMP EC50 [1] | cAMP EC50 [2] | cAMP EC50 [3] | cAMP EC50 [4] | cAMP Kb [2] | cAMP Kb [3] |
| --- | --- | --- | --- | --- | --- | --- |
| B1 | 8.43 nM | 32.4 nM | 0.959 nM | 2140 nM | – | – |
| B2 | 66.1 | – | – | 6.84 nM | 33.4 | 0.687 |
| B3 | 4.23 nM | 8.09 nM | 0.719 nM | 23.2 nM | – | – |
| B4 | 67.1 | – | – | 582 nM | 439 | 46.5 |
| B5 | 29.7 | – | – | 82.9 nM | 25.6 | 7.37 |
| B6 | 43.3 | – | – | 1290 nM | 215 | 5.87 |
| B7 | 37.9 | – | – | 1800 nM | 112 | 41.1 |
| B8 | 4.7 | – | – | 147 nM | – | – |
| B9 | 770 | – | – | 869 nM | 221 | 4.52 |
| [dF]CH[d(Et)Tyr]RW[βAla][dC]T-NH2 (disulfide 2-8) [D-Phe-c(Cys-His-D-(Et)Tyr-Arg-Trp-β-Ala-D-Cys)-Thr-NH2] | 0.35 nM | 1.1 nM | 0.11 nM | 0.37 nM | – | – |
| B10 | 0.31 nM | 0.27 nM | 0.018 nM | 3.1 nM | – | – |
